According to patent WO2008121813A2 (dated 2009):

Molecular target: T1, human DUBA polypeptide (human, UniProt Q96G74 1-571)
T1 construct: Used for endogenous DUBA of HEK293 and TLR3/293 cells and for human DUBA in transfected cells (Western blot with the hamster antibodies); also called OTUD5; OTU domain containing 5
T1 sequence: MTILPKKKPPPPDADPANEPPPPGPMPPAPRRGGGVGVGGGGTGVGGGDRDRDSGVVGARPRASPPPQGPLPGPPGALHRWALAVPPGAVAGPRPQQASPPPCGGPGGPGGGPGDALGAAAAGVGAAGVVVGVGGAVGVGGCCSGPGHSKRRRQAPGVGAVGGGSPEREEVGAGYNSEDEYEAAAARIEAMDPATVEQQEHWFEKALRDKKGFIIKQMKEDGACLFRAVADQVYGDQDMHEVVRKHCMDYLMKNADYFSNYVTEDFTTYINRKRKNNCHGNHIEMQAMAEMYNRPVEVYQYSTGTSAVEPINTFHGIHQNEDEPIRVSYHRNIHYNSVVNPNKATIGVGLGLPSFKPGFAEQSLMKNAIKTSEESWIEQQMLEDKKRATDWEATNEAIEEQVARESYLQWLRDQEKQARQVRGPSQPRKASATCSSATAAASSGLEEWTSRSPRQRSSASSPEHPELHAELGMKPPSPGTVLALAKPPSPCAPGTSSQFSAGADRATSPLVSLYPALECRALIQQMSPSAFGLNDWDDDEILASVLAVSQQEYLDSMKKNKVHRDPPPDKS
Experiment: anti-DUBA immunoprecipitation from TLR3/293 lysates at 0, 60 and 180 minutes, anti-TRAF3 Western blot

binding result: binds
B1: endogenous TRAF3 (enzyme, UniProt Q13114 1-568, looked up)
chain: MESSKKMDSPGALQTNPPLKLHTDRSAGTPVFVPEQGGYKEKFVKTVEDKYKCEKCHLVLCSPKQTECGHRFCESCMAALLSSSSPKCTACQESIVKDKVFKDNCCKREILALQIYCRNESRGCAEQLMLGHLLVHLKNDCHFEELPCVRPDCKEKVLRKDLRDHVEKACKYREATCSHCKSQVPMIALQKHEDTDCPCVVVSCPHKCSVQTLLRSELSAHLSECVNAPSTCSFKRYGCVFQGTNQQIKAHEASSAVQHVNLLKEWSNSLEKKVSLLQNESVEKNKSIQSLHNQICSFEIEIERQKEMLRNNESKILHLQRVIDSQAEKLKELDKEIRPFRQNWEEADSMKSSVESLQNRVTELESVDKSAGQVARNTGLLESQLSRHDQMLSVHDIRLADMDLRFQVLETASYNGVLIWKIRDYKRRKQEAVMGKTLSLYSQPFYTGYFGYKMCARVYLNGDGMGKGTHLSLFFVIMRGEYDALLPWPFKQKVTLMLMDQGSSRRHLGDAFKPDPNSSSFKKPTGEMNIASGCPVFVAQTVLENGTYIKDDTIFIKVIVDTSDLPDP
notes: RING finger-type ubiquitin ligase; also called TNF receptor-associated factor (TRAF3)
